Reference: patent US20140348747A1 (PROMEGA, published 2014)

T1: NLpoly 11S (12-A51T)
T1 construct: E. coli clarified lysate; also called 12S-51
T1 chain: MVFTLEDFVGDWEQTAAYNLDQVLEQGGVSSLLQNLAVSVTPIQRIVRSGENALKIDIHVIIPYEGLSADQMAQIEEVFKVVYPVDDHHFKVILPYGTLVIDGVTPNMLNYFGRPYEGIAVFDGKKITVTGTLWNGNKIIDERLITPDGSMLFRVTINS


Key:
[1] = target: T1, NLpoly 11S (12-A51T); experiment: luminescence complementation titration; one site-specific binding fit
[2] = target: T1, NLpoly 11S (12-A51T); experiment: luminescence complementation titration of synthetic NLpep on NLpoly E. coli lysate; one site-specific binding fit

Binder | fold improved affinity over NLpolyWT:NLpepWT [1] | Kd [2]
Ac-VSGWRLFKKISN-NH2 (synthetic peptide) [NLpep80] | 10000 fold | < 1 nM
Ac-VSGWRLFKKIS-NH2 (synthetic peptide) [NLpep86] | 10000 fold | < 1 nM
